Measurements taken from US20180140673A1.

What was measured:
[1] = molecular target: FGF receptor/BKL complex on HEK293 cells overexpressing human beta-klotho (BKL) (human) (UniProt Q86Z14); assay: cell-based or functional assay
[2] = molecular target: FGFR1c receptor/BKL complex on differentiated mouse 3T3-L1 adipocytes (mouse) (UniProt P16092); assay: cell-based or functional assay
Chain of FGFR1c receptor/BKL complex on differentiated mouse 3T3-L1 adipocytes (mouse) (P16092 22-822, chain 1 of 2): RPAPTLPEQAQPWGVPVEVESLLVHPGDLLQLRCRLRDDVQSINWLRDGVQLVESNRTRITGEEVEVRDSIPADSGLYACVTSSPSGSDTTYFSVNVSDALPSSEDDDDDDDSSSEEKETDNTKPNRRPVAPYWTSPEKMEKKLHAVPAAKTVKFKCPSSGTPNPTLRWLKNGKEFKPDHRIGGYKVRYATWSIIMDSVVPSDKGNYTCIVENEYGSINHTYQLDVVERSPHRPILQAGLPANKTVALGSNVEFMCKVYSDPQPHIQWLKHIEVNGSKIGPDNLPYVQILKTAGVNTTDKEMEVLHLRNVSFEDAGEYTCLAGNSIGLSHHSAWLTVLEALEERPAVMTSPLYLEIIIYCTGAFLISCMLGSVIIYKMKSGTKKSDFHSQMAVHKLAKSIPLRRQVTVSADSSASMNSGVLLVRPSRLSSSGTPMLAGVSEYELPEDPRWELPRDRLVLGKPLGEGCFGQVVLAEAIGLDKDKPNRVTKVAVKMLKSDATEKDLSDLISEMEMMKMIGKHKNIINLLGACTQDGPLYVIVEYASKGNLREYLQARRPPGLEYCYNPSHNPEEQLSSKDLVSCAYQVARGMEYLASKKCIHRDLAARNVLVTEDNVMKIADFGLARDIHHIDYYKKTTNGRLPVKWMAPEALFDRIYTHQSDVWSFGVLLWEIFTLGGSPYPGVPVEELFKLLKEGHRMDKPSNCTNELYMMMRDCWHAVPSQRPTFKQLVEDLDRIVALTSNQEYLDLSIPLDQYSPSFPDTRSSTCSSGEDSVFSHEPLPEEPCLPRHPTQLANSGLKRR
Chain of FGFR1c receptor/BKL complex on differentiated mouse 3T3-L1 adipocytes (mouse) (Q99N32 whole entry, chain 2 of 2, further chain): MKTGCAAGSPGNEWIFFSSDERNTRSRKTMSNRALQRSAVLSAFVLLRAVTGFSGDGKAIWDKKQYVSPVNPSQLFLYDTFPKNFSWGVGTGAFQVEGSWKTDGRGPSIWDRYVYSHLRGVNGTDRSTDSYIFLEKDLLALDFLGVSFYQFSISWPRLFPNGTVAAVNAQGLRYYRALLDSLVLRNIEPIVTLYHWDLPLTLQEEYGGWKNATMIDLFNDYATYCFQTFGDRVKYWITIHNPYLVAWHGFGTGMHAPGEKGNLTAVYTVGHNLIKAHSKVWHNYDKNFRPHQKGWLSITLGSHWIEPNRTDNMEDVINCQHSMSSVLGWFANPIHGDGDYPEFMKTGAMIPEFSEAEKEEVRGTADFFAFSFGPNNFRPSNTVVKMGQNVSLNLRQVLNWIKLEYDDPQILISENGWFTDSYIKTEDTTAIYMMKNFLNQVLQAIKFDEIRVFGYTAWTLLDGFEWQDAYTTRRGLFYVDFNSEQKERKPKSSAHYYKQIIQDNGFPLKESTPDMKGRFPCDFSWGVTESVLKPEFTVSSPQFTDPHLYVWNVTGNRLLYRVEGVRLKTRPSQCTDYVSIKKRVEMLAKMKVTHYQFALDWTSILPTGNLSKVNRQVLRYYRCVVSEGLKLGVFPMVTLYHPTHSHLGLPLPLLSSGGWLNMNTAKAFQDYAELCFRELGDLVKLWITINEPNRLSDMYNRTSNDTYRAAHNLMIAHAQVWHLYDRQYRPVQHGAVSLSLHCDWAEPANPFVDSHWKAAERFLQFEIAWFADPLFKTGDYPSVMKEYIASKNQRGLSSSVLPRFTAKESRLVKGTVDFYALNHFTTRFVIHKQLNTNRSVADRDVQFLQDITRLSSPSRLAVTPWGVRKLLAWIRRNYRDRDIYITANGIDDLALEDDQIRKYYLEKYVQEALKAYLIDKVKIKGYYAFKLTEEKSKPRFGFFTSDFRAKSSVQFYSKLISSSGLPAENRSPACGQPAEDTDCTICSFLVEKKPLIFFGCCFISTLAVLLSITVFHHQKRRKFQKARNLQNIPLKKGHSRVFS

Chain of S{Beta-180}-2-aminoethylsulfanyl-Ala[Gln121,Leu168,Cys180]FGF21 (Q9NSA1 other isoform, or with tags, fused parts or gaps limits assumed): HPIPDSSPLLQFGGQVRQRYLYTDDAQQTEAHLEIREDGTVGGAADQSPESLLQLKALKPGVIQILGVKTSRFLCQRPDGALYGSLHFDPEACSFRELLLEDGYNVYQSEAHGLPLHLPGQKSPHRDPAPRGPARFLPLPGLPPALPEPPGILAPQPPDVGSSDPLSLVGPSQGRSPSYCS
Chain of S{Beta-176}-2-aminoethylsulfanyl-Ala[Gln121,Leu168,Cys176]FGF21 (Q9NSA1 other isoform, or with tags, fused parts or gaps limits assumed): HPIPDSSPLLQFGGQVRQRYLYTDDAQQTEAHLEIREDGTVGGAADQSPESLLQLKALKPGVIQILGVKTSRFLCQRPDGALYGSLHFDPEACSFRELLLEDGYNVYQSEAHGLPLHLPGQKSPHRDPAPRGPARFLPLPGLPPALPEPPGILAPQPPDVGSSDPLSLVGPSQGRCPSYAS
Chain of S{Beta-181}-2-aminoethylsulfanyl-Ala[Gln121,Leu168,Cys181]FGF21 (Q9NSA1 other isoform, or with tags, fused parts or gaps limits assumed): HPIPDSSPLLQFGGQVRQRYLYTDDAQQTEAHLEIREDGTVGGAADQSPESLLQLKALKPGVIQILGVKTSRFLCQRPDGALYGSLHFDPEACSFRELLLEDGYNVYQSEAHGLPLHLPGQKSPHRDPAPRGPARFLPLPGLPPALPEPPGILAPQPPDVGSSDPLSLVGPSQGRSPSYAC
Chain of Ala[Gln121,Leu168]FGF21 (Q9NSA1 other isoform, or with tags, fused parts or gaps limits assumed): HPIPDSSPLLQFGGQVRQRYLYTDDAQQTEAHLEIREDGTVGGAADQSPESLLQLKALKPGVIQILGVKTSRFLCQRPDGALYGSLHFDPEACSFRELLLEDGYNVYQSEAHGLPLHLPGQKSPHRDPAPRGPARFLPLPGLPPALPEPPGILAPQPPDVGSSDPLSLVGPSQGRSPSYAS
Chain of FGF receptor/BKL complex on HEK293 cells overexpressing human beta-klotho (BKL) (human) (Q86Z14 whole entry, one chain of several): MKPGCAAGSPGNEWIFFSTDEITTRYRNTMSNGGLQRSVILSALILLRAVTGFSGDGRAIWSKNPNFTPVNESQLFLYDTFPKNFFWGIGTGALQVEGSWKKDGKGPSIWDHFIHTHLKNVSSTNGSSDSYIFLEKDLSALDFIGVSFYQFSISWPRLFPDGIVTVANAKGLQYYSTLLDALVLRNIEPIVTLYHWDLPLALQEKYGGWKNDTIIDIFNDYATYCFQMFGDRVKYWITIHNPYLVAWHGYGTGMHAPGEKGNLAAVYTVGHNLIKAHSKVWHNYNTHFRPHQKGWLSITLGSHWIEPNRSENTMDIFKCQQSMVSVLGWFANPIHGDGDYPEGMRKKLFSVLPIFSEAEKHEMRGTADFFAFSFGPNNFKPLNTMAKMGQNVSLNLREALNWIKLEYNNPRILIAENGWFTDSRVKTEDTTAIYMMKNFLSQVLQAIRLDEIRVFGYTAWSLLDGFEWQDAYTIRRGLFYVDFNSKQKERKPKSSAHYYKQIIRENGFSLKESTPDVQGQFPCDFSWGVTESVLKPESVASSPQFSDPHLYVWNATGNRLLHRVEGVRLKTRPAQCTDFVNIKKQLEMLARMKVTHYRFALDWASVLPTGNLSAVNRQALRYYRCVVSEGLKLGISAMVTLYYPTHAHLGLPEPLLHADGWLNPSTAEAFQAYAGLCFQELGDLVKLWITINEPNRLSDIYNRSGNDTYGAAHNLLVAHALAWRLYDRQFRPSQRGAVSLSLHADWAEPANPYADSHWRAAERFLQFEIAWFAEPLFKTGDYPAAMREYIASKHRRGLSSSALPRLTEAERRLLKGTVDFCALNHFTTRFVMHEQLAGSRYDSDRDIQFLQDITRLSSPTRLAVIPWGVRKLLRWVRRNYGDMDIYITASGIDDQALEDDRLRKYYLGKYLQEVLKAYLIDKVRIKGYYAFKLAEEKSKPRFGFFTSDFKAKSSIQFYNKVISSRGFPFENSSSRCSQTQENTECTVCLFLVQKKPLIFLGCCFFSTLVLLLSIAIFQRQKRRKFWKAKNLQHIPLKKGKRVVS
Chain of S{Beta-180}-2-aminoethylsulfanyl-Ala[Gln121,Leu168,Cys180,des181]FGF21 (Q9NSA1 other isoform, or with tags, fused parts or gaps limits assumed): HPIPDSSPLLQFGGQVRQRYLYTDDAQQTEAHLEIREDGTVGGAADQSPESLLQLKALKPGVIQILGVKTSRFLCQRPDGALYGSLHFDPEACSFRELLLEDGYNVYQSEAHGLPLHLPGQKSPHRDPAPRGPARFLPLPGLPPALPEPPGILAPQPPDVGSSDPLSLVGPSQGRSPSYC
Chain of S{Beta-179}-2-aminoethylsulfanyl-Ala[Gln121,Leu168,Cys179]FGF21 (Q9NSA1 other isoform, or with tags, fused parts or gaps limits assumed): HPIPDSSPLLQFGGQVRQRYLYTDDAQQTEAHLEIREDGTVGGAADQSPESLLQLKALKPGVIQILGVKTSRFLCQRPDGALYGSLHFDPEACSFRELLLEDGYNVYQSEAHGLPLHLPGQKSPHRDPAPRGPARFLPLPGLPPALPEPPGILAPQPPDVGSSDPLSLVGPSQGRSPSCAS
Chain of S{Beta-178}-2-aminoethylsulfanyl-Ala[Gln121,Leu168,Cys178]FGF21 (Q9NSA1 other isoform, or with tags, fused parts or gaps limits assumed): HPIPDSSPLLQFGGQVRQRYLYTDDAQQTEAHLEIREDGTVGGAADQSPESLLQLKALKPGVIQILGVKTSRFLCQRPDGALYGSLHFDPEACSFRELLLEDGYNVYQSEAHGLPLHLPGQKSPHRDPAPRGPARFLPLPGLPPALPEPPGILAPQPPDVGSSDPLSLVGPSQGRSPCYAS

EC50 (nM), pERK, HEK293/BKL cells [1] [nM]	Glucose uptake EC50 (nM), 3T3-L1 adipocytes [2] [nM]	Glucose uptake Emax (%), 3T3-L1 adipocytes [2] [%]	EC50 (0.1% HSA) (nM), pERK, HEK293/BKL cells [1] [nM]	Substance
2	3.1	85	–	Ala[Gln121,Leu168]FGF21 (from UniProt Q9NSA1 29-209) (ligand)
3	–	–	4	S{Beta-173}-[2-[2-[[2-[2-[2-[[2-[2-[2-[[(4S)-4-carboxy-4-(15-carboxypentadecanoyl-amino)butanoyl]amino]ethoxy]ethoxy]acetyl]amino]ethoxy]ethoxy]acetyl]amino]-ethylamino]-2-oxoethyl]-Ala[Gln121,Leu168,Cys173]FGF21 (from UniProt Q9NSA1 29-209) (ligand)
4	–	–	4	S{Beta-174}-[2-[2-[[2-[2-[2-[[2-[2-[2-[[(4S)-4-carboxy-4-(13-carboxytridecanoyl-amino)butanoyl]amino]ethoxy]ethoxy]acetyl]amino]ethoxy]ethoxy]acetyl]amino]-ethylamino]-2-oxoethyl]-Ala[Gln121,Leu168,Cys174]FGF21 (from UniProt Q9NSA1 29-209) (ligand)
1	–	–	1	S{Beta-175}-[2-[2-[[2-[2-[2-[[2-[2-[2-[[(4S)-4-carboxy-4-(15-carboxypentadecanoyl-amino)butanoyl]amino]ethoxy]ethoxy]acetyl]amino]ethoxy]ethoxy]acetyl]amino]-ethylamino]-2-oxoethyl]-Ala[Gln121,Leu168,Cys175]FGF21 (from UniProt Q9NSA1 29-209) (ligand)
227	73	84	–	S{Beta-176}-2-aminoethylsulfanyl-Ala[Gln121,Leu168,Cys176]FGF21 (from UniProt Q9NSA1 29-209) (ligand)
214	–	–	373	S{Beta-176}-[2-[2-[[2-[2-[2-[[2-[2-[2-[[(4S)-4-carboxy-4-(15-carboxypentadecanoyl-amino)butanoyl]amino]ethoxy]ethoxy]acetyl]amino]ethoxy]ethoxy]acetyl]amino]-ethylamino]-2-oxoethyl]-Ala[Gln121,Leu168,Cys176]FGF21 (from UniProt Q9NSA1 29-209) (ligand)
105	50	69	–	S{Beta-178}-2-aminoethylsulfanyl-Ala[Gln121,Leu168,Cys178]FGF21 (from UniProt Q9NSA1 29-209) (ligand)
69	25	77	–	S{Beta-179}-2-aminoethylsulfanyl-Ala[Gln121,Leu168,Cys179]FGF21 (from UniProt Q9NSA1 29-209) (ligand)
107	107	54	134	S{Beta-179}-[2-[2-[[2-[2-[2-[[2-[2-[2-[[(4S)-4-carboxy-4-(15-carboxypentadecanoyl-amino)butanoyl]amino]ethoxy]ethoxy]acetyl]amino]ethoxy]ethoxy]acetyl]amino]-ethylamino]-2-oxoethyl]-Ala[Gln121,Leu168,Cys179]FGF21 (from UniProt Q9NSA1 29-209) (ligand)
20	73	72	–	S{Beta-180}-2-aminoethylsulfanyl-Ala[Gln121,Leu168,Cys180,des181]FGF21 (from UniProt Q9NSA1 29-207) (ligand)
2.3	2.6	102	–	S{Beta-180}-2-aminoethylsulfanyl-Ala[Gln121,Leu168,Cys180]FGF21 (from UniProt Q9NSA1 29-209) (ligand)
7	2.7	87	4	S{Beta-180}-[2-[2-[[2-[2-[2-[[2-[2-[2-[[(4S)-4-carboxy-4-(11-carboxyundecanoyl-amino)butanoyl]amino]ethoxy]ethoxy]acetyl]amino]ethoxy]ethoxy]acetyl]amino]-ethylamino]-2-oxoethyl]-Ala[Gln121,Leu168,Cys180]FGF21 (from UniProt Q9NSA1 29-209) (ligand)
6	6.7	106	6	S{Beta-180}-[2-[2-[[2-[2-[2-[[2-[2-[2-[[(4S)-4-carboxy-4-(13-carboxytridecanoyl-amino)butanoyl]amino]ethoxy]ethoxy]acetyl]amino]ethoxy]ethoxy]acetyl]amino]-ethylamino]-2-oxoethyl]-Ala[Gln121,Leu168,Cys180]FGF21 (from UniProt Q9NSA1 29-209) (ligand)
4	9.1	98	6	S{Beta-180}-[2-[2-[[2-[2-[2-[[2-[2-[2-[[(4S)-4-carboxy-4-(15-carboxypentadecanoyl-amino)butanoyl]amino]ethoxy]ethoxy]acetyl]amino]ethoxy]ethoxy]acetyl]amino]-ethylamino]-2-oxoethyl]-Ala[Gln121,Leu168,Cys180]FGF21 (from UniProt Q9NSA1 29-209) (ligand)
8	8	71	20	S{Beta-180}-[2-[2-[[2-[2-[2-[[2-[2-[2-[[(4S)-4-carboxy-4-(17-carboxyheptadecanoyl-amino)butanoyl]amino]ethoxy]ethoxy]acetyl]amino]ethoxy]ethoxy]acetyl]amino]-ethylamino]-2-oxoethyl]-Ala[Gln121,Leu168,Cys180,des181]FGF21 (from UniProt Q9NSA1 29-207) (ligand)
5	32	109	48	S{Beta-180}-[2-[2-[[2-[2-[2-[[2-[2-[2-[[(4S)-4-carboxy-4-(17-carboxyheptadecanoyl-amino)butanoyl]amino]ethoxy]ethoxy]acetyl]amino]ethoxy]ethoxy]acetyl]amino]-ethylamino]-2-oxoethyl]-Ala[Gln121,Leu168,Cys180]FGF21 (from UniProt Q9NSA1 29-209) (ligand)
5	24	53	133	S{Beta-180}-[2-[2-[[2-[2-[2-[[2-[2-[2-[[(4S)-4-carboxy-4-(19-carboxynonadecanoyl-amino)butanoyl]amino]ethoxy]ethoxy]acetyl]amino]ethoxy]ethoxy]acetyl]amino]-ethylamino]-2-oxoethyl]-Ala[Gln121,Leu168,Cys180]FGF21 (from UniProt Q9NSA1 29-209) (ligand)
27	5	74	–	S{Beta-181}-2-aminoethylsulfanyl-Ala[Gln121,Leu168,Cys181]FGF21 (from UniProt Q9NSA1 29-208) (ligand)
154	–	–	137	S{Beta-181}-[2-[2-[[2-[2-[2-[[2-[2-[2-[[(4S)-4-carboxy-4-(11-carboxyundecanoyl-amino)butanoyl]amino]ethoxy]ethoxy]acetyl]amino]ethoxy]ethoxy]acetyl]amino]-ethylamino]-2-oxoethyl]-Ala[Gln121,Leu168,Cys181]FGF21 (from UniProt Q9NSA1 29-208) (ligand)
58	7.2	55	41	S{Beta-181}-[2-[2-[[2-[2-[2-[[2-[2-[2-[[(4S)-4-carboxy-4-(13-carboxytridecanoyl-amino)butanoyl]amino]ethoxy]ethoxy]acetyl]amino]ethoxy]ethoxy]acetyl]amino]-ethylamino]-2-oxoethyl]-Ala[Gln121,Leu168,Cys181]FGF21 (from UniProt Q9NSA1 29-208) (ligand)
55	31	61	72	S{Beta-181}-[2-[2-[[2-[2-[2-[[2-[2-[2-[[(4S)-4-carboxy-4-(15-carboxypentadecanoyl-amino)butanoyl]amino]ethoxy]ethoxy]acetyl]amino]ethoxy]ethoxy]acetyl]amino]-ethylamino]-2-oxoethyl]-Ala[Gln121,Leu168,Cys181]FGF21 (from UniProt Q9NSA1 29-208) (ligand)
42	56	73	170	S{Beta-181}-[2-[2-[[2-[2-[2-[[2-[2-[2-[[(4S)-4-carboxy-4-(17-carboxyheptadecanoyl-amino)butanoyl]amino]ethoxy]ethoxy]acetyl]amino]ethoxy]ethoxy]acetyl]amino]-ethylamino]-2-oxoethyl]-Ala[Gln121,Leu168,Cys181]FGF21 (from UniProt Q9NSA1 29-208) (ligand)
58	410	57	434	S{Beta-181}-[2-[2-[[2-[2-[2-[[2-[2-[2-[[(4S)-4-carboxy-4-(19-carboxynonadecanoyl-amino)butanoyl]amino]ethoxy]ethoxy]acetyl]amino]ethoxy]ethoxy]acetyl]amino]-ethylamino]-2-oxoethyl]-Ala[Gln121,Leu168,Cys181]FGF21 (from UniProt Q9NSA1 29-208) (ligand)
